Experimental data from patent US5677146A, “Human amyloid protein precursor homolog and kunitz-type inhibitor” (Zymogenetics, Inc., priority 1995, dated 1997).

Tests used:
Format in all cases: biochemical
Cathepsin G = target: T1, Cathepsin G (Homo sapiens, UniProt P08311); test: Protease inhibitory activity assay, cathepsin G; settings: 1 μM inhibitor; Suc-Ala-Ala-Pro-Phe-pNA 0.6 mM; 25° C.
T1 construct: purified at Novo Nordisk A/S; tissue Novo Nordisk A/S (purified there); host or cells: leukocytes (by the cited method)
T1 sequence (P08311 21-255): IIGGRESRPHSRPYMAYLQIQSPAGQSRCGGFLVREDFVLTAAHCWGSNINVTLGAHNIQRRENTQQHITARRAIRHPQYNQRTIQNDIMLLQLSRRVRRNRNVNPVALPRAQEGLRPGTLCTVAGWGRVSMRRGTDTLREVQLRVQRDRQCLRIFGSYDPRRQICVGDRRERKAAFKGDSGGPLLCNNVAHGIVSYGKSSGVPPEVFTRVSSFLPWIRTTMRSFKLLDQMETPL
Method: Cathepsin G Suc--Ala--Ala--Pro--Phe--pNA
(§1) purified at Novo Nordisk A/S
(0.6 mM) (SEQ ID NO: 19)
(§2) Inhibition assays were performed in microtiter wells in a total volume of 300 μl in 10 mM NaCl, 50 mM Tris-HCl (pH 7.4), 0.01% TWEEN80 (Polyoxyethylenesorbitan monoleate). The reactions were incubated at 25° C. for ten minutes after which the appropriate chromogenic substrate was added to the final concentration listed in Table 2 and the final reaction was incubated for thirty minutes at 25° C. Amidolytic activity was measured at 405 nm or by fluorescence Em at 460 nm.

Trypsin = test: Protease inhibitory activity assay, trypsin; settings: 1 μM inhibitor; trypsin 8 nM; H-D-Val-Leu-Lys-pNA 0.6 mM; 25° C.
Method: Trypsin (8 nM) H--D--Val--Leu--Lys--pNA
as §2

Plasmin = target: T2, Plasmin (Homo sapiens, UniProt P00747); test: Protease inhibitory activity assay, plasmin; settings: 1 μM inhibitor; plasmin 10 nM; H-D-Val-Leu-Lys-pNA 0.6 mM; 25° C.
T2 construct: Plasmin (10 nM); purchased Kabi
Method: H--D--Val--Leu--Lys--pNA
as §2

Leukocyte Elastase = target: T3, Leukocyte Elastase (Homo sapiens, UniProt P08246); test: Protease inhibitory activity assay, leukocyte elastase; settings: 1 μM inhibitor; MeO-Suc-Ala-Ala-Pro-Val-pNA 0.6 mM; 25° C.
T3 construct: purified at Novo Nordisk A/S; tissue Novo Nordisk A/S (purified there); host or cells: leukocytes
T3 sequence (P08246 30-267): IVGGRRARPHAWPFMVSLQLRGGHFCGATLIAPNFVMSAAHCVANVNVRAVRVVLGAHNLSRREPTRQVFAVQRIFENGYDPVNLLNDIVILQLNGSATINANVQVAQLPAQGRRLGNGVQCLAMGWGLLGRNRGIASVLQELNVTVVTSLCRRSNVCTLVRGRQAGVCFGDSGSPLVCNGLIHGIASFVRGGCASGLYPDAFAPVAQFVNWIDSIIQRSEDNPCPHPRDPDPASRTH
Method: MeO--Suc--Ala--Ala--Pro--Val--pNA
as §1, §2

[1] = target: T4, rec. Protein Ca (activated protein C) (Homo sapiens, UniProt P04070); test: Protease inhibitory activity assay, activated protein C; settings: 1 μM inhibitor; rec. Protein Ca 5 nM; <Glu-Pro-Arg-pNA 0.6 mM; 25° C.
T4 construct: purchased Novo Nordisk A/S
Method: as §2
r.h. refers to recombinant human, h. refers to human, protein Ca refers t
activated protein C; APPH refers to the KunitzType inhibitor domain of […]

human Factor Xa = target: T5, human Factor Xa (Homo sapiens, UniProt P00742); test: Protease inhibitory activity assay, Factor Xa; settings: 1 μM inhibitor; Factor Xa 3 nM; MeO-CO-CHA-Gly-Arg-pNA 0.3 mM; 25° C.
T5 construct: human Factor Xa (3 nM); purchased Dr. I. Schousboe, Copenhagen, Denmark
Method: The reactions were incubated at 25° C. for ten minutes after which the appropriate chromogenic substrate was added to the final concentration listed in Table 2 and the final reaction was incubated for thirty minutes at 25° C. Amidolytic activity was measured at 405 nm or by fluorescence Em at 460 nm.

rec. human Factor VIIa = target: T6, rec. human Factor VIIa (Homo sapiens, UniProt P08709); test: Protease inhibitory activity assay, Factor VIIa; settings: 1 μM inhibitor; Factor VIIa 300 nM; H-D-Ile-Pro-Arg-pNA 0.6 mM; 25° C.
T6 construct: rec. human Factor VIIa; purchased Novo Nordisk A/S
T6 sequence (P08709 61-212 limits assumed): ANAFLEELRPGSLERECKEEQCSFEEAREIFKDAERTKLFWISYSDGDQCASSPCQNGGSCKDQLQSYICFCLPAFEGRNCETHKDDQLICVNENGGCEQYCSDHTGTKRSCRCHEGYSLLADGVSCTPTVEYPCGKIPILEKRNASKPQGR
T6 sequence (P08709 213-466 limits assumed): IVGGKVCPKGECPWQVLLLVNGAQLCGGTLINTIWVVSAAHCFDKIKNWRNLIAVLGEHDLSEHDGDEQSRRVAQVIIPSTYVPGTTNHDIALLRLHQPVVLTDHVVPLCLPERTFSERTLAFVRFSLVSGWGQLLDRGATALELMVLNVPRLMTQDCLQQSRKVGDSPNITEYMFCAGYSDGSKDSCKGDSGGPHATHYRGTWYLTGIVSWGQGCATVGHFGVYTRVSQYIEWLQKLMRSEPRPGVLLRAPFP
Method: H--D--Ile--Pro--Arg--pNA
as §2

human Factor XIa = target: T7, human Factor XIa (Homo sapiens, UniProt P03951); test: Protease inhibitory activity assay, Factor XIa; settings: 1 μM inhibitor; Factor XIa 1 nM; Boc-Glu(OBzl)-Ala-Arg-MCA 0.12 mM; 25° C.
T7 construct: human Factor XIa (1 nM); purchased Dr. Kazuo Fujikawa, University of Washington, Seattle, WA
Method: Boc--Glu(OBzl)--Ala--Arg--MCA
as §2

[2] = tested on: GL Kallikrein (glandular kallikrein); test: Protease inhibitory activity assay, glandular kallikrein; settings: 1 μM inhibitor; GL kallikrein 1 U/ml; H-D-Val-Leu-Arg-pNA 0.6 mM; 25° C.
Method: H--D--Val--Leu--Arg--pNA
(§3) Abbreviations in Table 2: rec. refers to recombinant, GL kallikrein refer
(§4) to glandular kallikrein, and PL kallikrein refers to plasma kallikrein.
as §2

[3] = target: T8, PL Kallikrein (plasma kallikrein) (Homo sapiens, UniProt P03952); test: Protease inhibitory activity assay, plasma kallikrein; settings: 1 μM inhibitor; PL kallikrein 3 nM; H-D-Pro-Phe-Arg-pNA 0.6 mM; 25° C.
T8 construct: purchased Kabi
Method: (§5) H--D--Pro--Phe--Arg--pNA
as §3, §4, §2

Urokinase = target: T9, Urokinase (Homo sapiens, UniProt P00749); test: Protease inhibitory activity assay, urokinase; settings: 1 μM inhibitor; urokinase 5 nM; <Glu-Gly-Arg-pNA 0.6 mM; 25° C.
T9 construct: purchased Serono, Freigung, Germany
Method: as §2

human Factor XIIa = target: T10, human Factor XIIa (Homo sapiens, UniProt P00748); test: Protease inhibitory activity assay, Factor XIIa; settings: 1 μM inhibitor; Factor XIIa 30 nM; H-D-Pro-Phe-Arg-pNA 0.6 mM; 25° C.
T10 construct: human Factor XIIa (30 nM); purchased Dr. Walt Kisiel, University of New Mexico, Albuquerque, NM
T10 sequence (P00748 20-372 limits assumed): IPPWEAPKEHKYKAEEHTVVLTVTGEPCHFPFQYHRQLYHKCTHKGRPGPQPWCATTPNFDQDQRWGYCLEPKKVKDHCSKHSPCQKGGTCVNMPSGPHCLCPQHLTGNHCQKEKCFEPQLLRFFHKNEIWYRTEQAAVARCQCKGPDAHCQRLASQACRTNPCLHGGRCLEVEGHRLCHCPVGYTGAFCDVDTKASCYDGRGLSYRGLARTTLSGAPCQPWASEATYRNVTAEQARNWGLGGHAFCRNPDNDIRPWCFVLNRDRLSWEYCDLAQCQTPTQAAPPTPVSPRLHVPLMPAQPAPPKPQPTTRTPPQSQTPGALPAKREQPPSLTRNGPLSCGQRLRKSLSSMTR
T10 sequence (P00748 373-615 limits assumed): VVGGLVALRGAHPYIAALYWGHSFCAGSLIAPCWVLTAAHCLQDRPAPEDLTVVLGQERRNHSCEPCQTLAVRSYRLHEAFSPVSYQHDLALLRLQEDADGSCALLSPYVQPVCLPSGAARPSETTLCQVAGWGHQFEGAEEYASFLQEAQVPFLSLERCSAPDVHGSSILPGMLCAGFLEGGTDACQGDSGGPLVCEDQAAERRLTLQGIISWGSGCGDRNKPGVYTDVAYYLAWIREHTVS
Method: human Factor XIIa (30 nM)
as §5, §2

Chymotrypsin = test: Protease inhibitory activity assay, chymotrypsin; settings: 1 μM inhibitor; chymotrypsin 2.5 nM; MeO-Suc-Arg-Pro-Tyr-pNA 0.6 mM; 25° C.
Method: MeO--Suc--Arg--Pro--Tyr--pNA
as §2

T5 sequence (P00742 41-179 limits assumed): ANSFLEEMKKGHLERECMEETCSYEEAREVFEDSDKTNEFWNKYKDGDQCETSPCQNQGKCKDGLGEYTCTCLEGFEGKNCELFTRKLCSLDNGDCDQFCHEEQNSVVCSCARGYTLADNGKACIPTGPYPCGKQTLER
T5 sequence (P00742 235-488 limits assumed): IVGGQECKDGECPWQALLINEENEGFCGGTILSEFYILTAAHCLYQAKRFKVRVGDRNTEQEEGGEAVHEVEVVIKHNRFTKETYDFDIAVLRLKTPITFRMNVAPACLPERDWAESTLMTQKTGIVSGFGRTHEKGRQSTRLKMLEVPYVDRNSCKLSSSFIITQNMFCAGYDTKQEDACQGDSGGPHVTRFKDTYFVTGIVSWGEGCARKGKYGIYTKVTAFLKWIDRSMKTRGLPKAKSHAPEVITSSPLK
T8 sequence (P03952 20-390 limits assumed): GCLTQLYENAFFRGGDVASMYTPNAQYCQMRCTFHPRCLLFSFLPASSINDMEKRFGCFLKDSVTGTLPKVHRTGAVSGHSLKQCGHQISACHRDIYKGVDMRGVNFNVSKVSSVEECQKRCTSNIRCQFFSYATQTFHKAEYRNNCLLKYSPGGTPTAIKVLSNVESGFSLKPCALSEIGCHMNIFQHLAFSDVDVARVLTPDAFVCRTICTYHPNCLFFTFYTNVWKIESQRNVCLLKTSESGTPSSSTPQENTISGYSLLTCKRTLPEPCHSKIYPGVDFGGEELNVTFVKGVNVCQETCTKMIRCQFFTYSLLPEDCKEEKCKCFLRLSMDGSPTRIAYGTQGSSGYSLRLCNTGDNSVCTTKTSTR
T8 sequence (P03952 391-638 limits assumed): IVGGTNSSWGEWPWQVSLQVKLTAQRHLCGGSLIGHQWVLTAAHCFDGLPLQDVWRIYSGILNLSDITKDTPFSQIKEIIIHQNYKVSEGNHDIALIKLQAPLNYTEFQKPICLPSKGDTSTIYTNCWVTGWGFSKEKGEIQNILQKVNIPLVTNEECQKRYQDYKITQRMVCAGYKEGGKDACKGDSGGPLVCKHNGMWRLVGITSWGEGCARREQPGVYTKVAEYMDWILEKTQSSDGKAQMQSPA
T2 sequence (P00747 97-580 limits assumed): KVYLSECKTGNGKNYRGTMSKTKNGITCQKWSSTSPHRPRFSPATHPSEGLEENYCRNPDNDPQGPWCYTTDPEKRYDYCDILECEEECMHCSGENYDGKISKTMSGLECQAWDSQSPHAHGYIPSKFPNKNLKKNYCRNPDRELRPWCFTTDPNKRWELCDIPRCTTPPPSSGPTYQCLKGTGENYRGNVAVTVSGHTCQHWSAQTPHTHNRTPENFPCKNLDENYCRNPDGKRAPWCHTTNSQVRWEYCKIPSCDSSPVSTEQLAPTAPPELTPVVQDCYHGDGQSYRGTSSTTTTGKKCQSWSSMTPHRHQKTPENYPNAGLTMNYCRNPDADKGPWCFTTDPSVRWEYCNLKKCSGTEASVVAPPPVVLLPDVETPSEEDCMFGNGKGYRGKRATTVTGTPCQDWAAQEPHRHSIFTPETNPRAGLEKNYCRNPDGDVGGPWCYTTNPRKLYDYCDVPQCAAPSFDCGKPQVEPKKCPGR
T2 sequence (P00747 581-810 limits assumed): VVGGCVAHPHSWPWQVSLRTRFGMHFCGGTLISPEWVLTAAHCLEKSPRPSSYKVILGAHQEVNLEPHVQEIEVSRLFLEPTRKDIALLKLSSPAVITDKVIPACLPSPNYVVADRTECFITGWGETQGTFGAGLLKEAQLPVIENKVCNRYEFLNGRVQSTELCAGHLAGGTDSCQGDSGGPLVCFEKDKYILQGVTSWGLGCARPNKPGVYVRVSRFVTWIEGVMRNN
T7 sequence (P03951 19-387 limits assumed): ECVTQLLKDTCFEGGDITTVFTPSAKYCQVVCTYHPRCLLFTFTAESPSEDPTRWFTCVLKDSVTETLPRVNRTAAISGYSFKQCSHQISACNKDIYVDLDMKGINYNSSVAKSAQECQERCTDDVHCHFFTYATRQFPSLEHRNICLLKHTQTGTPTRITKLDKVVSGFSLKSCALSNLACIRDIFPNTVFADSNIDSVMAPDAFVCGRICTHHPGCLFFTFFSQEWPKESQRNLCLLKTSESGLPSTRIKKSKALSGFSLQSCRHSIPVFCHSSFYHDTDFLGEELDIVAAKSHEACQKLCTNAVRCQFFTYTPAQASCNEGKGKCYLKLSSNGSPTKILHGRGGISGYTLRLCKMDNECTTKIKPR
T7 sequence (P03951 388-625 limits assumed): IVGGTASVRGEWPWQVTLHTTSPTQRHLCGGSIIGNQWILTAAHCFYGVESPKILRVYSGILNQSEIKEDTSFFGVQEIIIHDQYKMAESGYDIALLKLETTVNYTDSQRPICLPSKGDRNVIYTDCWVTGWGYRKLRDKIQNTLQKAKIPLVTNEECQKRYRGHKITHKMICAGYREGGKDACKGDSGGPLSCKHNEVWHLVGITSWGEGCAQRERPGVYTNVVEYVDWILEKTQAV
T4 sequence (P04070 43-197 limits assumed): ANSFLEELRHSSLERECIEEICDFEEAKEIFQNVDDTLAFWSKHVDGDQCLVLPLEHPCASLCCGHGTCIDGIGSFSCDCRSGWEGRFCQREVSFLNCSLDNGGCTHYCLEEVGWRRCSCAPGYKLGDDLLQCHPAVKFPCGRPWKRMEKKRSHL
T4 sequence (P04070 212-461 limits assumed): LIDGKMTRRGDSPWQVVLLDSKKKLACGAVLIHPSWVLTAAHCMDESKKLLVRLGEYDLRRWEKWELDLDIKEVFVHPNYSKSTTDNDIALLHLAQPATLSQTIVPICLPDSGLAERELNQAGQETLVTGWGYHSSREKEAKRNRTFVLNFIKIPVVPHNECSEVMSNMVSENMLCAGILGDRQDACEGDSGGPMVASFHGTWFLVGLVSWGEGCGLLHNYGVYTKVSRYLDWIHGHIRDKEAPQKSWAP

B1: APPH: Kunitz-type inhibitor domain of the human amyloid protein precursor homologue (SEQ ID NO:2 region 53/56/57-110), expressed in yeast (protein)
chain: GYIEALAANAGTGFAVAEPQIAMFCGKLNMHVNIQTGKWEPDPTGTKSCFETKEEVLQYCQEMYPELQITNVMEANQRVSIDNWCRRDKKQCKSRFVTPFKCLVGEFVSDVLLVPEKCQFFHKERMEVCENHQHWHTVVKEACLTQGMTLYSYGMLLPCGVDQFHGTEYVCCPQTKIIGSVSKEEEEEDEEEEEEEDEEEDYDVYKSEFPTEADLEDFTEAAVDEDDEDEEEGEEVVEDRDYYYDTFKGDDYNEENPTEPGSDGTMSDKEITHDVKAVCSQEAMTGPCRAVMPRWYFDLSKGKCVRFIYGGCGGNRNNFESEDYCMAVCKAMIPPTPLPTNDVDVYFETSADDNEHARFQKAKEQLEIRHRNRMDRVKKEWEEAELQAKNLPKAERQTLIQHFQAMVKALEKEAASEKQQLVETHLARVEAMLNDRRRMALENYLAALQSDPPRPHRILQALRRYVRAENKDRLHTIRHYQHVLAVDPEKAAQMKSQVMTHLHVIEERRNQILSLLYKVPYVAQEIQEEIDELLQEQRADMDQFTASISETPVDVRVSSEESEEIPPFHPFHPFPALPENEDTQPELYHPMKKGSGVGEQDGGLIGAEEKVINSKNKVDENMVIDETLDVKEMIFNAERVGGLEEERESVGPLREDFSLSS
What does the source list for B1?
% Inhibition, Cathepsin G (Cathepsin G): 0%; % Inhibition, Trypsin (Trypsin): 99.6%; % Inhibition, Plasmin (Plasmin): 77%; % Inhibition, Leukocyte Elastase (Leukocyte Elastase): 4%; % Inhibition, r.h. Protein Ca [1]: 0%; % Inhibition, h. Factor Xa (human Factor Xa): 0%; % Inhibition, r.h. Factor VIIa (rec. human Factor VIIa): 15%; % Inhibition, h. Factor XIa (human Factor XIa): 99.8%; % Inhibition, GI Kallikrein [2]: 97%; % Inhibition, PL Kallikrein [3]: 69%; % Inhibition, Urokinase (Urokinase): 2%; % Inhibition, h. Factor XIIa (human Factor XIIa): 6%; % Inhibition, Chymotrypsin (Chymotrypsin): 61%
